According to the RNAGym collection of RNA variant scans (doi:10.1073/pnas.2313332121):
Fewer inactive variants are shown than the library holds.

B1: TPR 5TU (parent)
chain: GGAUCUUCUCGAUCUAACAAAAAAGACAAAUCUGCCACAAAGCUUGAGAGCAUCUUCGGAUGCAGAGGCGGCAGCCUUCGGUGGCGCGAUAGCGCCAACGUUCUCAACUAUGACACGCAAAACGCGUGCUCCGUUGAAUGGAGUUUAUCAUG

Variants of: B1
Assay: polymerase ribozyme fitness, log enrichment relative to wild type (log ratio); higher = more active; in vitro selection for triplet polymerase activity
Procedure, shortened: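 In triplicate, a single round of in vitro selection was run on each mutant library, PCR-built and transcribed, covering one subunit of a heterodimeric triplet polymerase ribozyme. Frozen incubation at −7 °C followed annealing with a biotinylated primer, partner subunit and triplets, and extended constructs were then gel-excised, streptavidin-captured and taken through RT-PCR. Fitness is the logarithm of genotype enrichment over wild-type enrichment, from inverse-variance-weighted replicate averages of Illumina-sequenced inputs and outputs. […] only genotypes with ≥10 input reads and ≥1 read per output were kept.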

| Variant | polymerase ribozyme fitness (log ratio) |
| --- | --- |
| C51G A60G | -1.74 |
| A52C C57U G86U C99U C118U C125G G143A U151A | ≤ -4.2 |
| G50C C85A C93A | ≤ -4.2 |
| G50U U55A G126U | -0.316 |
| G50C G59U C118U | -2.35 |
| A52C C69G G74C | ≤ -4.2 |
| C51A A91G | -3.53 |
| C51U C69G G94C U146C | -1.9 |
| G50C G71A C95U G117C G143A | ≤ -4.2 |
| G50A U56A G88C A106G | ≤ -4.2 |
| C51U C72U G80A C85A U109G | ≤ -4.2 |
| G50U A60U C76A G80U U101G A107U | ≤ -4.2 |
| A49G G58C | -0.689 |
| C51U G86C | -2.98 |
| C51U G92A | -3.5 |
| G50A C57G G81A C85U C116U | -2.31 |
| A49G C69U | -1.39 |
| A52C C54U U55G G67C G71U C85U G143C | ≤ -4.2 |
| A49U U55A U56G | -1.76 |
| A49U G67A C95U C114G A142C | ≤ -4.2 |
| G50C C87A C93A C99U A137U A138C | ≤ -4.2 |

| Variant | polymerase ribozyme fitness (log ratio) |
| --- | --- |
| C51U C63U G83C U151C | ≤ -4.2 |
| C51A C85A | -2.75 |
| G50C C87A C114G A150C | ≤ -4.2 |
| G50U G84U | -1.81 |
| A49U C93A | -3.3 |
| G50U G83A C95G A107G | ≤ -4.2 |
| G50C C54U C87A U135C U144C | ≤ -4.2 |
| G50U C54U C93A G136U | -4.07 |
| G50A G84U A147U | -1.53 |
| G50C G74C A120G G124U G126A | ≤ -4.2 |
| G50A G136U U144G U146C | -2.38 |
| A52C A73G G84U A115G C123G G124C C129A | ≤ -4.2 |
| G50U C72A A89C G92A C129A A137G A150U | ≤ -4.2 |
| A52C A106G U139C | ≤ -4.2 |
| A49G G59U A97U G143A | -3.58 |
| G50U U78A | ≤ -4.2 |
| G50C G65A | -3.27 |
| G50A C93A A97G C99U U109G | ≤ -4.2 |
| C51U A66C G74A U90G U111G | ≤ -4.2 |
| C51A A89C C93U G117U A137U A150C | ≤ -4.2 |
| A49U G141A | -1.34 |

| Variant | polymerase ribozyme fitness (log ratio) |
| --- | --- |
| A49U A60U G81U A106G C118A U134C | -3.51 |
| G50U A150G | -2.11 |
| A49C U56A C69A C99A | ≤ -4.2 |
| A49G U55G G88A U139C U145A | ≤ -4.2 |
| G50C C95A | -2.7 |
| G50A G133C | -3.28 |
| A52C C85A C93U C96G A121C U146C | ≤ -4.2 |
| G50C C54U U56A G59U | -3.48 |
| C51A G124A | -0.00389 |
| A49G C54U U109G | -2.26 |
| A49G C85U G117U U135C G143C | -4.06 |
| C51A C72A G80U U146C | ≤ -4.2 |
| C51U U61A G84U | -2.8 |
| A49G U53A U144G | -0.883 |
| G50A G88A C95U C123G U139G U151G | ≤ -4.2 |
| G50U C93G | -3.35 |
| G50A G88U U127C | ≤ -4.2 |
| C51A A52C A64C C95U U101C A121C G133C U135G | ≤ -4.2 |
| G50A C54G U77G A97U A120G | ≤ -4.2 |
| G50A C125A | -1.79 |
| A52C C93U U102G | ≤ -4.2 |

| Variant | polymerase ribozyme fitness (log ratio) |
| --- | --- |
| G50C A137C G141U | ≤ -4.2 |
| A49U C57U C93G C103G U144C | ≤ -4.2 |
| C51U G58U U82G C96U | -0.59 |
| G50C A89G C99U A122G | ≤ -4.2 |
| C51U U53A A110C C116A | ≤ -4.2 |
| G50A U55A | -1.34 |
| A52C C57A C69U C85U | -3.07 |
| G50U G58A | 0.88 |
| G50C A98G | -3.37 |
| A49U A73U G88A C105A U144A | ≤ -4.2 |
| C51G A115C A122U | -3.82 |
| A49C U134G | ≤ -4.2 |
| G50A C93U A142U | -3.71 |
| G50C G86U U111G | ≤ -4.2 |
| G50A G84A A142C | -3.15 |
| G50A A52G C76U A98G C123G | -2.81 |
| C51A C95U A97U | -2.64 |
| A49U G50A | -0.047 |
| C51U G143U | -2.3 |
| A49U C87A | ≤ -4.2 |
| A52C C85U A121C U134C A142C | -2.29 |
